According to the supplement of paper PMC9732359:
± gives the uncertainty stated by the source.

Experiment: protein stability index of a GFP-peptide fusion (yeast GPS) (PSI 1-4); higher = more stable; sorted into four equal gates, so the index is relative within each strain
Outline: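 Tiled 17-residue yeast protein peptides were fused downstream of GFP in a plasmid that also expresses Cherry, and the pooled library was carried in yeast. Mid-log cultures in leucine-free medium were sorted into four equal gates by GFP/Cherry fluorescence ratio, and plasmids from each gate were PCR-amplified and Illumina-sequenced, with reads assigned to strains by barcodes. The protein stability index for each peptide was each gate's read frequency times its gate number, summed.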

Sequence | protein stability index (doa10∆) | protein stability index (pdr5∆) | protein stability index (san1∆) | protein stability index (ubr1∆)
KIINTHSDMASKMYNTD [PRP8] | 2.72 ± 0.049 | 2.76 ± 0.052 | 2.77 ± 0.05 | 2.28 ± 0.029
SIVGVDLSSAASASGAA [FAS2] | 1.77 ± 0.13 | 1.53 ± 0.11 | – | 1.62 ± 0.18
ALPNIENDIIKLSDSKT [BRR2] | 2.79 ± 0.054 | 3.16 ± 0.055 | 2.82 ± 0.044 | 3.23 ± 0.054
LFEIVSNADTNQNSDMK [SRB8] | 2.51 ± 0.29 | 2.87 ± 0.29 | 2.85 ± 0.16 | –
FNQFVDYTLQDIICEDS [RPB2] | 2.72 ± 0.1 | 2.86 ± 0.083 | 2.78 ± 0.053 | 2.36 ± 0.079
YQSLKQIVQVLKQPPFQ [SSN8] | 1.43 ± 0.082 | 2.22 ± 0.11 | – | 1.46 ± 0.097
REKVRKLSQYVQEMALG [FAS2] | 2.86 ± 0.11 | 3.41 ± 0.11 | 3.15 ± 0.071 | 3.24 ± 0.067
FNTLVRIMSTRCMMAAQ [DIS3] | 1.53 ± 0.07 | 1.73 ± 0.058 | 1.61 ± 0.076 | 1.58 ± 0.036
KELKEKEAAESPEEADV [PUP2] | 3.44 ± 0.082 | 3.56 ± 0.086 | 3.02 ± 0.057 | 3.32 ± 0.054
HRWGTKKLPRKTHRGLR [RPL3] | 3.32 ± 0.11 | 3.04 ± 0.13 | 3.12 ± 0.084 | 3.34 ± 0.061
IDVDMDASPAPSNESCS [SRB5] | 2.6 ± 0.053 | 2.58 ± 0.05 | 2.66 ± 0.057 | 2.32 ± 0.049
EARFWHLVELLLVFRNA [YDL116W/NUP84] | 2.69 ± 0.079 | 2.1 ± 0.065 | 2.06 ± 0.085 | 2.02 ± 0.064
AVKRGTCAVGVKGKNCV [PRE6] | 1.06 ± 0.11 | 1.62 ± 0.18 | 1.39 ± 0.27 | 2.51 ± 0.17
SDIPKTTVQVAEEAIVN [PRE4] | 2.92 ± 0.12 | 2.72 ± 0.09 | 1.81 ± 0.28 | 2.54 ± 0.091
GNYIKTENATENDQQDN [LIN1] | 2.51 ± 0.098 | 2.62 ± 0.071 | 2.05 ± 0.13 | 2.61 ± 0.086
PQYNMNMGMNNMNNGGK [PGD1] | 3.42 ± 0.21 | 3.48 ± 0.19 | 3.16 ± 0.11 | 3.24 ± 0.083
DAELMADEEEEIVDTYQ [ISW2] | 1.32 ± 0.15 | 1.3 ± 0.27 | – | 1.24 ± 0.25
SPGSPAYSPKQDEQKHN [RPO21] | 3.11 ± 0.15 | 3.15 ± 0.11 | 3.2 ± 0.11 | 3.27 ± 0.11
VIELPLKNPEIFQRVGI [RPT4] | 2.17 ± 0.11 | 2.16 ± 0.21 | 2.46 ± 0.12 | 2.29 ± 0.17
TQAIADIVQYHLELYTS [PRE3] | 2.07 ± 0.064 | 1.72 ± 0.057 | 1.77 ± 0.069 | 2.01 ± 0.042
KPGRMPFNFTVTLFQMA [CDC53] | 1.65 ± 0.039 | 1.99 ± 0.043 | 2.17 ± 0.08 | 2.05 ± 0.051
TTYTYQQPNPLQDLISV [ROX3] | 1.67 ± 0.059 | 1.81 ± 0.069 | 1.7 ± 0.11 | 2.08 ± 0.1
KSMKYVKKILPLYARYI [ECM29] | 1.38 ± 0.093 | 1.19 ± 0.069 | – | 1.18 ± 0.1
IQVFEKPFLKKTQEYYT [CDC53] | 2.36 ± 0.073 | 2.33 ± 0.056 | 2.57 ± 0.078 | 2.57 ± 0.053
MVKGLLKSFTESTAGSA [ECM29] | 3.34 ± 0.26 | 2.97 ± 0.18 | 2.81 ± 0.11 | 3.34 ± 0.096
TEENIKGETNSEISIID [RRP45] | 2.96 ± 0.07 | 3.16 ± 0.064 | 3.3 ± 0.055 | 3.22 ± 0.053
ENISLAEFILKNRSTIF [BRR2] | 2.77 ± 0.082 | 2.13 ± 0.082 | 1.67 ± 0.11 | 1.88 ± 0.054

Sequence | protein stability index (doa10∆) | protein stability index (pdr5∆) | protein stability index (san1∆) | protein stability index (ubr1∆)
PSFGKRHNKSHTLCNRC [RPL37A] | 2.54 ± 0.1 | 2.84 ± 0.08 | 2.97 ± 0.12 | 2.68 ± 0.21
LATNSLVEEFMLLANIS [DIS3] | 1.39 ± 0.095 | 1.7 ± 0.099 | 1.74 ± 0.16 | 2.37 ± 0.071
DDLADDDFEEDEDEEDD [RPC31] | – | 3.31 ± 0.12 | 3.21 ± 0.09 | 3.46 ± 0.29
LVFILAVVGNNMLLDPA [RRP42] | 1.56 ± 0.088 | 1.39 ± 0.076 | 1.94 ± 0.12 | 1.81 ± 0.063
IDKLEDLSRIMDWLDNW [ITC1] | 2.58 ± 0.29 | 2.67 ± 0.23 | – | –
LPAYSGEIGDFFSSDWR [POP1] | 3.04 ± 0.11 | 3.32 ± 0.089 | 3.24 ± 0.068 | 3.16 ± 0.096
SPSEFVDVAIPCNNRGK [RPS0A] | 1.74 ± 0.096 | 1.97 ± 0.065 | 1.61 ± 0.093 | 1.54 ± 0.096
FKRVSQTFEAKLHFKDT [NUT1] | 2.96 ± 0.082 | 3.32 ± 0.1 | 3.41 ± 0.053 | 3.19 ± 0.051
RVIVAGTLDINPDDDYG [FAS1] | 2.38 ± 0.069 | 2.87 ± 0.073 | 2.85 ± 0.06 | 2.51 ± 0.058
KTVDSSIQPIESNIKMT [SSN2] | 2.47 ± 0.082 | 2.72 ± 0.1 | 2.86 ± 0.083 | 2.74 ± 0.052
LLHSKPSLLLQKDQDGR [NAS6] | 3.22 ± 0.22 | 3.33 ± 0.13 | – | –
ANRSRFNNEAPPQTRKF [SMB1] | 3.05 ± 0.083 | 3.03 ± 0.049 | 2.87 ± 0.069 | 3.26 ± 0.047
SSGQDKKKKKGSNQKPK [RPT2] | 3.08 ± 0.21 | 2.92 ± 0.28 | – | 3.1 ± 0.15
IVDDYWESLAKKQNLSS [SWP82] | 2.91 ± 0.073 | 2.93 ± 0.089 | 3.45 ± 0.1 | 2.96 ± 0.059
CLTMFEDRNESVNIAFA [ECM29] | 2.42 ± 0.13 | 2.52 ± 0.094 | 2.81 ± 0.11 | 2.5 ± 0.073
IYISNLVRSIIAFDDLI [RPN8] | 1.42 ± 0.066 | 1.36 ± 0.11 | 1.17 ± 0.23 | 1.27 ± 0.27
TMTYEEVAKRLVELMFI [FAS1] | 1.79 ± 0.067 | 2.22 ± 0.071 | 2.52 ± 0.084 | 2.14 ± 0.069
PFDNSTEEKCKNFIESE [YJL039C/NUP192] | 3.27 ± 0.14 | 3.39 ± 0.16 | 3.22 ± 0.096 | 3.32 ± 0.1
LQQELATTQDQVASIIE [NUT2] | 2.77 ± 0.059 | 2.95 ± 0.043 | 3.23 ± 0.053 | 2.98 ± 0.037
ILDGLTVRLVNLFSSTG [SRB2] | 3.1 ± 0.15 | 3.03 ± 0.16 | – | –
AMSLYHSPFPFNRTKGK [PRP8] | 2.11 ± 0.04 | 2.08 ± 0.047 | 1.65 ± 0.07 | 1.98 ± 0.03
TWSLILNECLKTIQINN [YML031W/NDC1] | 1.88 ± 0.057 | 1.62 ± 0.058 | 1.3 ± 0.1 | 1.86 ± 0.042
PGKGILTTAREHHSSVK [FAS2] | 3.07 ± 0.087 | 3.32 ± 0.076 | 3.17 ± 0.049 | 3.11 ± 0.067
SMSLQSKNLGEINTALN [SWI1] | 2.81 ± 0.12 | 2.9 ± 0.1 | – | 3.08 ± 0.12
LNWFRTTNMNVNNCIWA [RGR1] | 2.22 ± 0.057 | 1.34 ± 0.045 | 1.15 ± 0.12 | 1.28 ± 0.036
RQQKLLLETKLRQQYEI [SWI1] | 3.06 ± 0.11 | 2.93 ± 0.1 | 3.17 ± 0.068 | 2.91 ± 0.11
